Laboratory results reported in publication PMC12416549 (2024).

T1: TNFR1 (Homo sapiens, UniProt P19438)
T1 chain: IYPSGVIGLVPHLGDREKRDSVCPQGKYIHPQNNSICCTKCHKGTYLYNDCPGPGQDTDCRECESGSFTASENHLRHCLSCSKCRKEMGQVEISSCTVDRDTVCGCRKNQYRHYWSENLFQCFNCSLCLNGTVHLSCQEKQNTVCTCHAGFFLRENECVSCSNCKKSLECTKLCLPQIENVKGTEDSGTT


Biological target: T1, TNFR1
Test: yeast display SC50

| Binder | apparent Kd (screen) |
| --- | --- |
| A67S (designed binder) SMEEEVEKAAKEYEKKKKEAIEKHLEKLKAKDKEAAERFLKELEEAAKEYAKDEAKTMSEEEAKRRSKKYKEKVLLSELSEEEQKEIKEAEEKLVRTILKYVEEAAK | 1.54 nM |
| E78A (designed binder) SMEEEVEKAAKEYEKKKKEAIEKHLEKLKAKDKEAAERFLKELEEAAKEYAKDEAKTMSEEEAKRRAKKYKEKVLLSALSEEEQKEIKEAEEKLVRTILKYVEEAAK | 2.48 nM |
| K64E (designed binder) SMEEEVEKAAKEYEKKKKEAIEKHLEKLKAKDKEAAERFLKELEEAAKEYAKDEAKTMSEEEAERRAKKYKEKVLLSELSEEEQKEIKEAEEKLVRTILKYVEEAAK | 0.593 nM |
| K29I (designed binder) SMEEEVEKAAKEYEKKKKEAIEKHLEKLIAKDKEAAERFLKELEEAAKEYAKDEAKTMSEEEAKRRAKKYKEKVLLSELSEEEQKEIKEAEEKLVRTILKYVEEAAK | 1.54 nM |
| L79H (designed binder) SMEEEVEKAAKEYEKKKKEAIEKHLEKLKAKDKEAAERFLKELEEAAKEYAKDEAKTMSEEEAKRRAKKYKEKVLLSEHSEEEQKEIKEAEEKLVRTILKYVEEAAK | 13.8 nM |
| E34Q (designed binder) SMEEEVEKAAKEYEKKKKEAIEKHLEKLKAKDKQAAERFLKELEEAAKEYAKDEAKTMSEEEAKRRAKKYKEKVLLSELSEEEQKEIKEAEEKLVRTILKYVEEAAK | 0.446 nM |
| E104D (designed binder) SMEEEVEKAAKEYEKKKKEAIEKHLEKLKAKDKEAAERFLKELEEAAKEYAKDEAKTMSEEEAKRRAKKYKEKVLLSELSEEEQKEIKEAEEKLVRTILKYVEDAAK | 0.956 nM |
| A9F (designed binder) SMEEEVEKFAKEYEKKKKEAIEKHLEKLKAKDKEAAERFLKELEEAAKEYAKDEAKTMSEEEAKRRAKKYKEKVLLSELSEEEQKEIKEAEEKLVRTILKYVEEAAK | 0.718 nM |
| K15Q (designed binder) SMEEEVEKAAKEYEQKKKEAIEKHLEKLKAKDKEAAERFLKELEEAAKEYAKDEAKTMSEEEAKRRAKKYKEKVLLSELSEEEQKEIKEAEEKLVRTILKYVEEAAK | 0.956 nM |
| A20C (designed binder) SMEEEVEKAAKEYEKKKKECIEKHLEKLKAKDKEAAERFLKELEEAAKEYAKDEAKTMSEEEAKRRAKKYKEKVLLSELSEEEQKEIKEAEEKLVRTILKYVEEAAK | 0.718 nM |
| K17Y (designed binder) SMEEEVEKAAKEYEKKYKEAIEKHLEKLKAKDKEAAERFLKELEEAAKEYAKDEAKTMSEEEAKRRAKKYKEKVLLSELSEEEQKEIKEAEEKLVRTILKYVEEAAK | 0.446 nM |
| E42W (designed binder) SMEEEVEKAAKEYEKKKKEAIEKHLEKLKAKDKEAAERFLKWLEEAAKEYAKDEAKTMSEEEAKRRAKKYKEKVLLSELSEEEQKEIKEAEEKLVRTILKYVEEAAK | 0.49 nM |
| A55K (designed binder) SMEEEVEKAAKEYEKKKKEAIEKHLEKLKAKDKEAAERFLKELEEAAKEYAKDEKKTMSEEEAKRRAKKYKEKVLLSELSEEEQKEIKEAEEKLVRTILKYVEEAAK | 6.43 nM |
| A67V (designed binder) SMEEEVEKAAKEYEKKKKEAIEKHLEKLKAKDKEAAERFLKELEEAAKEYAKDEAKTMSEEEAKRRVKKYKEKVLLSELSEEEQKEIKEAEEKLVRTILKYVEEAAK | 7.78 nM |
| T57D (designed binder) SMEEEVEKAAKEYEKKKKEAIEKHLEKLKAKDKEAAERFLKELEEAAKEYAKDEAKDMSEEEAKRRAKKYKEKVLLSELSEEEQKEIKEAEEKLVRTILKYVEEAAK | 13.8 nM |
| L75E (designed binder) SMEEEVEKAAKEYEKKKKEAIEKHLEKLKAKDKEAAERFLKELEEAAKEYAKDEAKTMSEEEAKRRAKKYKEKVELSELSEEEQKEIKEAEEKLVRTILKYVEEAAK | 2.73 nM |
| K16F (designed binder) SMEEEVEKAAKEYEKFKKEAIEKHLEKLKAKDKEAAERFLKELEEAAKEYAKDEAKTMSEEEAKRRAKKYKEKVLLSELSEEEQKEIKEAEEKLVRTILKYVEEAAK | 0.446 nM |
| K56L (designed binder) SMEEEVEKAAKEYEKKKKEAIEKHLEKLKAKDKEAAERFLKELEEAAKEYAKDEALTMSEEEAKRRAKKYKEKVLLSELSEEEQKEIKEAEEKLVRTILKYVEEAAK | 1.05 nM |
| E37I (designed binder) SMEEEVEKAAKEYEKKKKEAIEKHLEKLKAKDKEAAIRFLKELEEAAKEYAKDEAKTMSEEEAKRRAKKYKEKVLLSELSEEEQKEIKEAEEKLVRTILKYVEEAAK | 0.956 nM |
| K17V (designed binder) SMEEEVEKAAKEYEKKVKEAIEKHLEKLKAKDKEAAERFLKELEEAAKEYAKDEAKTMSEEEAKRRAKKYKEKVLLSELSEEEQKEIKEAEEKLVRTILKYVEEAAK | 0.539 nM |
| M58H (designed binder) SMEEEVEKAAKEYEKKKKEAIEKHLEKLKAKDKEAAERFLKELEEAAKEYAKDEAKTHSEEEAKRRAKKYKEKVLLSELSEEEQKEIKEAEEKLVRTILKYVEEAAK | 7.78 nM |
| K27E (designed binder) SMEEEVEKAAKEYEKKKKEAIEKHLEELKAKDKEAAERFLKELEEAAKEYAKDEAKTMSEEEAKRRAKKYKEKVLLSELSEEEQKEIKEAEEKLVRTILKYVEEAAK | 0.956 nM |

The next lines start with the values.

| apparent Kd (screen) | Binder |
| --- | --- |
| 7.07 nM | T97P (designed binder) SMEEEVEKAAKEYEKKKKEAIEKHLEKLKAKDKEAAERFLKELEEAAKEYAKDEAKTMSEEEAKRRAKKYKEKVLLSELSEEEQKEIKEAEEKLVRPILKYVEEAAK |
| 8.56 nM | R66W (designed binder) SMEEEVEKAAKEYEKKKKEAIEKHLEKLKAKDKEAAERFLKELEEAAKEYAKDEAKTMSEEEAKRWAKKYKEKVLLSELSEEEQKEIKEAEEKLVRTILKYVEEAAK |
| 20.2 nM | A67T (designed binder) SMEEEVEKAAKEYEKKKKEAIEKHLEKLKAKDKEAAERFLKELEEAAKEYAKDEAKTMSEEEAKRRTKKYKEKVLLSELSEEEQKEIKEAEEKLVRTILKYVEEAAK |
| 0.446 nM | K11G (designed binder) SMEEEVEKAAGEYEKKKKEAIEKHLEKLKAKDKEAAERFLKELEEAAKEYAKDEAKTMSEEEAKRRAKKYKEKVLLSELSEEEQKEIKEAEEKLVRTILKYVEEAAK |
| 0.49 nM | L43C (designed binder) SMEEEVEKAAKEYEKKKKEAIEKHLEKLKAKDKEAAERFLKECEEAAKEYAKDEAKTMSEEEAKRRAKKYKEKVLLSELSEEEQKEIKEAEEKLVRTILKYVEEAAK |
| 1.4 nM | R96Q (designed binder) SMEEEVEKAAKEYEKKKKEAIEKHLEKLKAKDKEAAERFLKELEEAAKEYAKDEAKTMSEEEAKRRAKKYKEKVLLSELSEEEQKEIKEAEEKLVQTILKYVEEAAK |
| 11.4 nM | Y13I (designed binder) SMEEEVEKAAKEIEKKKKEAIEKHLEKLKAKDKEAAERFLKELEEAAKEYAKDEAKTMSEEEAKRRAKKYKEKVLLSELSEEEQKEIKEAEEKLVRTILKYVEEAAK |
| 1.69 nM | E44F (designed binder) SMEEEVEKAAKEYEKKKKEAIEKHLEKLKAKDKEAAERFLKELFEAAKEYAKDEAKTMSEEEAKRRAKKYKEKVLLSELSEEEQKEIKEAEEKLVRTILKYVEEAAK |
| 0.405 nM | E54F (designed binder) SMEEEVEKAAKEYEKKKKEAIEKHLEKLKAKDKEAAERFLKELEEAAKEYAKDFAKTMSEEEAKRRAKKYKEKVLLSELSEEEQKEIKEAEEKLVRTILKYVEEAAK |
| 1.16 nM | E4Y (designed binder) SMEYEVEKAAKEYEKKKKEAIEKHLEKLKAKDKEAAERFLKELEEAAKEYAKDEAKTMSEEEAKRRAKKYKEKVLLSELSEEEQKEIKEAEEKLVRTILKYVEEAAK |
| 11.4 nM | A55C (designed binder) SMEEEVEKAAKEYEKKKKEAIEKHLEKLKAKDKEAAERFLKELEEAAKEYAKDECKTMSEEEAKRRAKKYKEKVLLSELSEEEQKEIKEAEEKLVRTILKYVEEAAK |
| 2.73 nM | E49A (designed binder) SMEEEVEKAAKEYEKKKKEAIEKHLEKLKAKDKEAAERFLKELEEAAKAYAKDEAKTMSEEEAKRRAKKYKEKVLLSELSEEEQKEIKEAEEKLVRTILKYVEEAAK |
| 3.63 nM | Q84D (designed binder) SMEEEVEKAAKEYEKKKKEAIEKHLEKLKAKDKEAAERFLKELEEAAKEYAKDEAKTMSEEEAKRRAKKYKEKVLLSELSEEEDKEIKEAEEKLVRTILKYVEEAAK |
